From patent US20240270841A1 come the findings set out here.

In this assay the target is LILRB1 expressed on the surface of human natural killer cell KHYG-1 (human) (UniProt Q8NHL6). Briefly: flow cytometry (iQue) on KHYG-1 NK cells, antibody 50 ug/mL. Background: In flow cytometry, cells or beads pass a laser one at a time.
Sequence of LILRB1 expressed on the surface of human natural killer cell KHYG-1 (human) (Q8NHL6 24-650): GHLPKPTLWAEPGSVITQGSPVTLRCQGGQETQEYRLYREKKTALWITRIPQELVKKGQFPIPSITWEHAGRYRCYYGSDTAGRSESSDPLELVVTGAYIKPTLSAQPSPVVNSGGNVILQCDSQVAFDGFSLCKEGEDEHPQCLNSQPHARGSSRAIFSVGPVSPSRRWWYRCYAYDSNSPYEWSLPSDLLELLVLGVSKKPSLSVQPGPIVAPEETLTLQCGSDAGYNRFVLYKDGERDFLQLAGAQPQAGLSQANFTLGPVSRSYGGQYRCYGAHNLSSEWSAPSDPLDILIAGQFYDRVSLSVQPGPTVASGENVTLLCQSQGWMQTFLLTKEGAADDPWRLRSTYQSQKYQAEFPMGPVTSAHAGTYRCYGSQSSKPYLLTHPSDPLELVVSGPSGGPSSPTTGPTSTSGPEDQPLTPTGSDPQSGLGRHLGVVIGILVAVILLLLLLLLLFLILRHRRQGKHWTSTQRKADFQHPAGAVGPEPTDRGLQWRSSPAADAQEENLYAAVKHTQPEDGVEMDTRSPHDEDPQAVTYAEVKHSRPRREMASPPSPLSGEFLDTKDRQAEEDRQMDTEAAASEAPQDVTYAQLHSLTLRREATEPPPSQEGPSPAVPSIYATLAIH

Turning to “human IgG4 isotype control antibody (Biolegend)”, the % of population 2 worked out at 2.95% and the Mean Fluorescence Intensity turned out to be 143000.
